Assay results from IntAct's records for PubMed 35512704.

B1: Speckle-type POZ protein (Homo sapiens), O43791 (parent)
chain: MSRVPSPPPPAEMSSGPVAESWCYTQIKVVKFSYMWTINNFSFCREEMGEVIKSSTFSSGANDKLKWCLRVNPKGLDEESKDYLSLYLLLVSCPKSEVRAKFKFSILNAKGEETKAMESQRAYRFVQGKDWGFKKFIRRDFLLDEANGLLPDDKLTLFCEVSVVQDSVNISGQNTMNMVKVPECRLADELGGLWENSRFTDCCLCVAGQEFQAHKAILAARSPVFSAMFEHEMEESKKNRVEINDVEPEVFKEMMCFIYTGKAPNLDKMADDLLAAADKYALERLKVMCEDALCSNLSVENAAEILILADLHSADQLKTQAVDFINYHASDVLETSGWKSMVVSHPHLVAEAYRSLASAQCPFLGPPRKRLKQS

Variants of: B1
Conditions: with za2g_human AZGP1, P25311
Sequence of za2g_human AZGP1, P25311 (P25311 whole entry): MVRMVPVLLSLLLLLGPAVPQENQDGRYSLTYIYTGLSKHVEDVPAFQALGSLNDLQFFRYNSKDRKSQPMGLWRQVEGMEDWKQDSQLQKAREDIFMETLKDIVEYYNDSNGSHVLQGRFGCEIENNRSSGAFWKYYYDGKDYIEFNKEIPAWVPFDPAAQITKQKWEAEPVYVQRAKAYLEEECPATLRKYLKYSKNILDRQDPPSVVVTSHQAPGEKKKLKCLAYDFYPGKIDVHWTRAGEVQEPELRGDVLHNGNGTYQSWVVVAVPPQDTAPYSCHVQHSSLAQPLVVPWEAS

| effect of a mutation on the interaction | Variant |
| --- | --- |
| with no effect | MSRVPSPPPPAEMSSGPVAESWCYTQIKVVKFSYMWTINNFSFCREEMGEVIKSSTFSSGANDKLKWCLRVNPKGLDEESKDYLSLCLLLVSCPKSEVRAKFKFSILNAKGEETKAMESQRAYRFVQGKDWGFKKFIRRDFLLDEANGLLPDDKLTLFCEVSVVQDSVNISGQNTMNMVKVPECRLADELGGLWENSRFTDCCLCVAGQEFQAHKAILAARSPVFSAMFEHEMEESKKNRVEINDVEPEVFKEMMCFIYTGKAPNLDKMADDLLAAADKYALERLKVMCEDALCSNLSVENAAEILILADLHSADQLKTQAVDFINYHASDVLETSGWKSMVVSHPHLVAEAYRSLASAQCPFLGPPRKRLKQS [Y87C] |

Variants of: B1
Conditions: with b2mg_human B2M

| effect of a mutation on the interaction | Variant |
| --- | --- |
| with no effect | MSRVPSPPPPAEMSSGPVAESWCYTQIKVVKFSYMWTINNFSFCREEMGEVIKSSTFSSGANDKLKWCLRVNPKGLDEESKDYLSLCLLLVSCPKSEVRAKFKFSILNAKGEETKAMESQRAYRFVQGKDWGFKKFIRRDFLLDEANGLLPDDKLTLFCEVSVVQDSVNISGQNTMNMVKVPECRLADELGGLWENSRFTDCCLCVAGQEFQAHKAILAARSPVFSAMFEHEMEESKKNRVEINDVEPEVFKEMMCFIYTGKAPNLDKMADDLLAAADKYALERLKVMCEDALCSNLSVENAAEILILADLHSADQLKTQAVDFINYHASDVLETSGWKSMVVSHPHLVAEAYRSLASAQCPFLGPPRKRLKQS [Y87C] |

Variants of: B1
Conditions: with bap1_human BAP1, Q92560
Sequence of bap1_human BAP1, Q92560 (Q92560 whole entry): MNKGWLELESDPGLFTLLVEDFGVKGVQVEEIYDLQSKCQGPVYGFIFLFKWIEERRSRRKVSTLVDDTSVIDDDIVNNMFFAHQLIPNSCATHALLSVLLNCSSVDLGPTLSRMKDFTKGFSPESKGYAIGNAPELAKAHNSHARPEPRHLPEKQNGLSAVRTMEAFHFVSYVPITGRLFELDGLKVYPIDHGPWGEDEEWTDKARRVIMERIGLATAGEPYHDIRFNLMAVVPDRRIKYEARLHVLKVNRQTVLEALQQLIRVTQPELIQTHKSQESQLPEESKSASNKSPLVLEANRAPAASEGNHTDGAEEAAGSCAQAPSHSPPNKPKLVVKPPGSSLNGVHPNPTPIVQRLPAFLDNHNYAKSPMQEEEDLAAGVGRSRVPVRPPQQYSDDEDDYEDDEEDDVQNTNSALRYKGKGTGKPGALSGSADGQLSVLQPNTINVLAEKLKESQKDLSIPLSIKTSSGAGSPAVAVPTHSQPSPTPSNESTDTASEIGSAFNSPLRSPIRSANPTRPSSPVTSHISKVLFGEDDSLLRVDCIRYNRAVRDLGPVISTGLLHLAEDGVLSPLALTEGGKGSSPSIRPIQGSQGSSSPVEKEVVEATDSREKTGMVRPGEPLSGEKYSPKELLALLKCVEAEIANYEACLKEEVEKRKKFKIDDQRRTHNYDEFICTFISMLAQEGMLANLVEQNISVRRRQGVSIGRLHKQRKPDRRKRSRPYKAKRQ

| effect of a mutation on the interaction | Variant |
| --- | --- |
| with no effect | MSRVPSPPPPAEMSSGPVAESWCYTQIKVVKFSYMWTINNFSFCREEMGEVIKSSTFSSGANDKLKWCLRVNPKGLDEESKDYLSLCLLLVSCPKSEVRAKFKFSILNAKGEETKAMESQRAYRFVQGKDWGFKKFIRRDFLLDEANGLLPDDKLTLFCEVSVVQDSVNISGQNTMNMVKVPECRLADELGGLWENSRFTDCCLCVAGQEFQAHKAILAARSPVFSAMFEHEMEESKKNRVEINDVEPEVFKEMMCFIYTGKAPNLDKMADDLLAAADKYALERLKVMCEDALCSNLSVENAAEILILADLHSADQLKTQAVDFINYHASDVLETSGWKSMVVSHPHLVAEAYRSLASAQCPFLGPPRKRLKQS [Y87C] |

Variants of: B1
Conditions: with bcor_human BCOR

| effect of a mutation on the interaction | Variant |
| --- | --- |
| with no effect | MSRVPSPPPPAEMSSGPVAESWCYTQIKVVKFSYMWTINNFSFCREEMGEVIKSSTFSSGANDKLKWCLRVNPKGLDEESKDYLSLCLLLVSCPKSEVRAKFKFSILNAKGEETKAMESQRAYRFVQGKDWGFKKFIRRDFLLDEANGLLPDDKLTLFCEVSVVQDSVNISGQNTMNMVKVPECRLADELGGLWENSRFTDCCLCVAGQEFQAHKAILAARSPVFSAMFEHEMEESKKNRVEINDVEPEVFKEMMCFIYTGKAPNLDKMADDLLAAADKYALERLKVMCEDALCSNLSVENAAEILILADLHSADQLKTQAVDFINYHASDVLETSGWKSMVVSHPHLVAEAYRSLASAQCPFLGPPRKRLKQS [Y87C] |

Variants of: B1
Conditions: with bcorl_human BCORL1, Q5H9F3
Sequence of bcorl_human BCORL1, Q5H9F3 (Q5H9F3 whole entry): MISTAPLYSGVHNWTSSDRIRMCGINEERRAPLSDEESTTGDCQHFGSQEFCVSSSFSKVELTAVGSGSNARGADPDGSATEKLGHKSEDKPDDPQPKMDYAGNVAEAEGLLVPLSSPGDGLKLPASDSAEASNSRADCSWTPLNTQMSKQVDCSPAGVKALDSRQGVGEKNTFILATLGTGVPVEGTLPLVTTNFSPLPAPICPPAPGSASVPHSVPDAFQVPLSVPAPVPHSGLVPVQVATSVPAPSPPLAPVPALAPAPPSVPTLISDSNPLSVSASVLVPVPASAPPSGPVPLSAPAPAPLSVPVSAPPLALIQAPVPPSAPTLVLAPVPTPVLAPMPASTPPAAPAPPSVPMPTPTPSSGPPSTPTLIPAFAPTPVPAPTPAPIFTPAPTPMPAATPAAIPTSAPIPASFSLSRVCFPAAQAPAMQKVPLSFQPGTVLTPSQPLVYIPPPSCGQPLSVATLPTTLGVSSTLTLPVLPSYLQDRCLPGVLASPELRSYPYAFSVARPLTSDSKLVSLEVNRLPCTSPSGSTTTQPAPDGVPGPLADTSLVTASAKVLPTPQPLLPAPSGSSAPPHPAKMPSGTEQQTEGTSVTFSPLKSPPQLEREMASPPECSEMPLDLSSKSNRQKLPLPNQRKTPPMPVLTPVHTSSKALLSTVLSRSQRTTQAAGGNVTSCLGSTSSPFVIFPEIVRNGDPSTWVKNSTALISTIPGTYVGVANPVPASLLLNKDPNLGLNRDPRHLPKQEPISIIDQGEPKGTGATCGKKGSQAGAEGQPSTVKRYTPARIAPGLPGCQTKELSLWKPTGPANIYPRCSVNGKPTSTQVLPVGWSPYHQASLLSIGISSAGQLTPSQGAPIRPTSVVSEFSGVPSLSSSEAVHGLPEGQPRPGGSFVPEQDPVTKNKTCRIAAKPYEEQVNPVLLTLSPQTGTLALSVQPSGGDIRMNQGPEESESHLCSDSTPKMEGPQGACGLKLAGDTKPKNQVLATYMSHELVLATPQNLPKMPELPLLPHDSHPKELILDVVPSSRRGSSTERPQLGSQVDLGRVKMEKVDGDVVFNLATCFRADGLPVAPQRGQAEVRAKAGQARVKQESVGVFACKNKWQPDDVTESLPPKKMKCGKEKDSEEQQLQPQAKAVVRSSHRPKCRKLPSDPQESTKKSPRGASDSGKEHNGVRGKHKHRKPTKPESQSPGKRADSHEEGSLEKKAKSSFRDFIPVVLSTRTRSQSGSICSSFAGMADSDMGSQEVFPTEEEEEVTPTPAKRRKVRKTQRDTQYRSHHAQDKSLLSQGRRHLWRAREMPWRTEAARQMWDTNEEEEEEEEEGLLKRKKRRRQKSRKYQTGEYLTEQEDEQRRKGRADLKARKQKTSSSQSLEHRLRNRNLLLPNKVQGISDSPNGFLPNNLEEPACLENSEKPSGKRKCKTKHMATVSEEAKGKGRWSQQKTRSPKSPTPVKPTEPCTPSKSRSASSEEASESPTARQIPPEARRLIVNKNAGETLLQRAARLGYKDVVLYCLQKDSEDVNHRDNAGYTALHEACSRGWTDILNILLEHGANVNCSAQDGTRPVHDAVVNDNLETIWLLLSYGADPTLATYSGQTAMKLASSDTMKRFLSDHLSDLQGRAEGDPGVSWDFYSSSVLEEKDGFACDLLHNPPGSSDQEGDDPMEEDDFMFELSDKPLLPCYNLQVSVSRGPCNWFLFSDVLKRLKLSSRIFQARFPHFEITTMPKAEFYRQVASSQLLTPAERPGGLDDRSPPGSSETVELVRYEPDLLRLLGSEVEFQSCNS

| effect of a mutation on the interaction | Variant |
| --- | --- |
| with no effect | MSRVPSPPPPAEMSSGPVAESWCYTQIKVVKFSYMWTINNFSFCREEMGEVIKSSTFSSGANDKLKWCLRVNPKGLDEESKDYLSLCLLLVSCPKSEVRAKFKFSILNAKGEETKAMESQRAYRFVQGKDWGFKKFIRRDFLLDEANGLLPDDKLTLFCEVSVVQDSVNISGQNTMNMVKVPECRLADELGGLWENSRFTDCCLCVAGQEFQAHKAILAARSPVFSAMFEHEMEESKKNRVEINDVEPEVFKEMMCFIYTGKAPNLDKMADDLLAAADKYALERLKVMCEDALCSNLSVENAAEILILADLHSADQLKTQAVDFINYHASDVLETSGWKSMVVSHPHLVAEAYRSLASAQCPFLGPPRKRLKQS [Y87C] |

Variants of: B1
Conditions: with birc2_human BIRC2, Q13490

| effect of a mutation on the interaction | Variant |
| --- | --- |
| with no effect | MSRVPSPPPPAEMSSGPVAESWCYTQIKVVKFSYMWTINNFSFCREEMGEVIKSSTFSSGANDKLKWCLRVNPKGLDEESKDYLSLCLLLVSCPKSEVRAKFKFSILNAKGEETKAMESQRAYRFVQGKDWGFKKFIRRDFLLDEANGLLPDDKLTLFCEVSVVQDSVNISGQNTMNMVKVPECRLADELGGLWENSRFTDCCLCVAGQEFQAHKAILAARSPVFSAMFEHEMEESKKNRVEINDVEPEVFKEMMCFIYTGKAPNLDKMADDLLAAADKYALERLKVMCEDALCSNLSVENAAEILILADLHSADQLKTQAVDFINYHASDVLETSGWKSMVVSHPHLVAEAYRSLASAQCPFLGPPRKRLKQS [Y87C] |

Variants of: B1
Conditions: with brd4_human BRD4, O60885

| effect of a mutation on the interaction | Variant |
| --- | --- |
| with no effect | MSRVPSPPPPAEMSSGPVAESWCYTQIKVVKFSYMWTINNFSFCREEMGEVIKSSTFSSGANDKLKWCLRVNPKGLDEESKDYLSLCLLLVSCPKSEVRAKFKFSILNAKGEETKAMESQRAYRFVQGKDWGFKKFIRRDFLLDEANGLLPDDKLTLFCEVSVVQDSVNISGQNTMNMVKVPECRLADELGGLWENSRFTDCCLCVAGQEFQAHKAILAARSPVFSAMFEHEMEESKKNRVEINDVEPEVFKEMMCFIYTGKAPNLDKMADDLLAAADKYALERLKVMCEDALCSNLSVENAAEILILADLHSADQLKTQAVDFINYHASDVLETSGWKSMVVSHPHLVAEAYRSLASAQCPFLGPPRKRLKQS [Y87C] |

Variants of: B1
Conditions: with baba2_human BABAM2, Q9NXR7
Sequence of baba2_human BABAM2, Q9NXR7 (Q9NXR7 whole entry): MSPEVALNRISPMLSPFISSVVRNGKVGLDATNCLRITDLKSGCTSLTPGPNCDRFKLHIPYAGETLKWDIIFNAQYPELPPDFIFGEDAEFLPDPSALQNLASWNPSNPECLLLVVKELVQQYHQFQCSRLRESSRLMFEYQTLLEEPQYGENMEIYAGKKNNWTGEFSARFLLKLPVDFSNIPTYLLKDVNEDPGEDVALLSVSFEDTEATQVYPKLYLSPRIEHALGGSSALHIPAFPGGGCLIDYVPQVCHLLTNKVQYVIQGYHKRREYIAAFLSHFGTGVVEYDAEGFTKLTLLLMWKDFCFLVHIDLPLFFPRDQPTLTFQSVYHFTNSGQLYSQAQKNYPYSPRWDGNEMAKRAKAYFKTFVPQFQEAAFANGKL

| effect of a mutation on the interaction | Variant |
| --- | --- |
| with no effect | MSRVPSPPPPAEMSSGPVAESWCYTQIKVVKFSYMWTINNFSFCREEMGEVIKSSTFSSGANDKLKWCLRVNPKGLDEESKDYLSLCLLLVSCPKSEVRAKFKFSILNAKGEETKAMESQRAYRFVQGKDWGFKKFIRRDFLLDEANGLLPDDKLTLFCEVSVVQDSVNISGQNTMNMVKVPECRLADELGGLWENSRFTDCCLCVAGQEFQAHKAILAARSPVFSAMFEHEMEESKKNRVEINDVEPEVFKEMMCFIYTGKAPNLDKMADDLLAAADKYALERLKVMCEDALCSNLSVENAAEILILADLHSADQLKTQAVDFINYHASDVLETSGWKSMVVSHPHLVAEAYRSLASAQCPFLGPPRKRLKQS [Y87C] |

Variants of: B1
Conditions: with btg1_human BTG1, P62324
Sequence of btg1_human BTG1, P62324 (P62324 whole entry): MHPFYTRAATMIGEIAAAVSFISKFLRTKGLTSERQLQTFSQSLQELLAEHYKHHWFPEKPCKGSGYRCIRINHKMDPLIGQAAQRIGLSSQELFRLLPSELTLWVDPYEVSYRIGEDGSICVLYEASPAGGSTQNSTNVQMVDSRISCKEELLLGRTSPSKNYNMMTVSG

| effect of a mutation on the interaction | Variant |
| --- | --- |
| with no effect | MSRVPSPPPPAEMSSGPVAESWCYTQIKVVKFSYMWTINNFSFCREEMGEVIKSSTFSSGANDKLKWCLRVNPKGLDEESKDYLSLCLLLVSCPKSEVRAKFKFSILNAKGEETKAMESQRAYRFVQGKDWGFKKFIRRDFLLDEANGLLPDDKLTLFCEVSVVQDSVNISGQNTMNMVKVPECRLADELGGLWENSRFTDCCLCVAGQEFQAHKAILAARSPVFSAMFEHEMEESKKNRVEINDVEPEVFKEMMCFIYTGKAPNLDKMADDLLAAADKYALERLKVMCEDALCSNLSVENAAEILILADLHSADQLKTQAVDFINYHASDVLETSGWKSMVVSHPHLVAEAYRSLASAQCPFLGPPRKRLKQS [Y87C] |

Variants of: B1
Conditions: with ccnd1_human CCND1, P24385
Sequence of ccnd1_human CCND1, P24385 (P24385 whole entry): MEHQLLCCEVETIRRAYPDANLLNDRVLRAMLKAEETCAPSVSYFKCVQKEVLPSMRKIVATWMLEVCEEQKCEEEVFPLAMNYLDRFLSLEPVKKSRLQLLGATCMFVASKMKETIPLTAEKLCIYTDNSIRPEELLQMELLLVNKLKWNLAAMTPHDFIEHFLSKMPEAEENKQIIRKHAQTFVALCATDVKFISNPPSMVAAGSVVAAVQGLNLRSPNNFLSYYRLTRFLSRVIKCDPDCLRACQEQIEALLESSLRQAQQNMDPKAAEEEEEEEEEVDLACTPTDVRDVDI

| effect of a mutation on the interaction | Variant |
| --- | --- |
| with no effect | MSRVPSPPPPAEMSSGPVAESWCYTQIKVVKFSYMWTINNFSFCREEMGEVIKSSTFSSGANDKLKWCLRVNPKGLDEESKDYLSLCLLLVSCPKSEVRAKFKFSILNAKGEETKAMESQRAYRFVQGKDWGFKKFIRRDFLLDEANGLLPDDKLTLFCEVSVVQDSVNISGQNTMNMVKVPECRLADELGGLWENSRFTDCCLCVAGQEFQAHKAILAARSPVFSAMFEHEMEESKKNRVEINDVEPEVFKEMMCFIYTGKAPNLDKMADDLLAAADKYALERLKVMCEDALCSNLSVENAAEILILADLHSADQLKTQAVDFINYHASDVLETSGWKSMVVSHPHLVAEAYRSLASAQCPFLGPPRKRLKQS [Y87C] |

Variants of: B1
Conditions: with ccnd2_human CCND2, P30279
Sequence of ccnd2_human CCND2, P30279 (P30279 whole entry): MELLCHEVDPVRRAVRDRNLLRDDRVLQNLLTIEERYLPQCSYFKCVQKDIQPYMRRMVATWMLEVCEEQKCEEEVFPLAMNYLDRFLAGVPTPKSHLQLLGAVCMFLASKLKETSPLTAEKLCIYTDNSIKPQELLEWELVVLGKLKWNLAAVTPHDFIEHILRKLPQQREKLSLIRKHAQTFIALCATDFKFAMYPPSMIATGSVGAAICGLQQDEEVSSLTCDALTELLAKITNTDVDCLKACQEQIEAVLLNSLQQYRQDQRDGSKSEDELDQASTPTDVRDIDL

| effect of a mutation on the interaction | Variant |
| --- | --- |
| with no effect | MSRVPSPPPPAEMSSGPVAESWCYTQIKVVKFSYMWTINNFSFCREEMGEVIKSSTFSSGANDKLKWCLRVNPKGLDEESKDYLSLCLLLVSCPKSEVRAKFKFSILNAKGEETKAMESQRAYRFVQGKDWGFKKFIRRDFLLDEANGLLPDDKLTLFCEVSVVQDSVNISGQNTMNMVKVPECRLADELGGLWENSRFTDCCLCVAGQEFQAHKAILAARSPVFSAMFEHEMEESKKNRVEINDVEPEVFKEMMCFIYTGKAPNLDKMADDLLAAADKYALERLKVMCEDALCSNLSVENAAEILILADLHSADQLKTQAVDFINYHASDVLETSGWKSMVVSHPHLVAEAYRSLASAQCPFLGPPRKRLKQS [Y87C] |

Variants of: B1
Conditions: with ccnd3_human CCND3, P30281
Sequence of ccnd3_human CCND3, P30281 (P30281 whole entry): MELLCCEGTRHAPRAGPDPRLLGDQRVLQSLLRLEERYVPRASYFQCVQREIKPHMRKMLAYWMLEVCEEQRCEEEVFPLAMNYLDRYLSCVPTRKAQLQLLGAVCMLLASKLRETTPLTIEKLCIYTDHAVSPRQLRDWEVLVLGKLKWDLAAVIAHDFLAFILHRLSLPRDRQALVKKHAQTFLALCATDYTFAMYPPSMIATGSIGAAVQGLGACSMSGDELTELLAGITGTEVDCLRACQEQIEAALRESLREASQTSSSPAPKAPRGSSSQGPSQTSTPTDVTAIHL

| effect of a mutation on the interaction | Variant |
| --- | --- |
| with no effect | MSRVPSPPPPAEMSSGPVAESWCYTQIKVVKFSYMWTINNFSFCREEMGEVIKSSTFSSGANDKLKWCLRVNPKGLDEESKDYLSLCLLLVSCPKSEVRAKFKFSILNAKGEETKAMESQRAYRFVQGKDWGFKKFIRRDFLLDEANGLLPDDKLTLFCEVSVVQDSVNISGQNTMNMVKVPECRLADELGGLWENSRFTDCCLCVAGQEFQAHKAILAARSPVFSAMFEHEMEESKKNRVEINDVEPEVFKEMMCFIYTGKAPNLDKMADDLLAAADKYALERLKVMCEDALCSNLSVENAAEILILADLHSADQLKTQAVDFINYHASDVLETSGWKSMVVSHPHLVAEAYRSLASAQCPFLGPPRKRLKQS [Y87C] |

Variants of: B1
Conditions: with ccne1_human CCNE1, P24864

| effect of a mutation on the interaction | Variant |
| --- | --- |
| with no effect | MSRVPSPPPPAEMSSGPVAESWCYTQIKVVKFSYMWTINNFSFCREEMGEVIKSSTFSSGANDKLKWCLRVNPKGLDEESKDYLSLCLLLVSCPKSEVRAKFKFSILNAKGEETKAMESQRAYRFVQGKDWGFKKFIRRDFLLDEANGLLPDDKLTLFCEVSVVQDSVNISGQNTMNMVKVPECRLADELGGLWENSRFTDCCLCVAGQEFQAHKAILAARSPVFSAMFEHEMEESKKNRVEINDVEPEVFKEMMCFIYTGKAPNLDKMADDLLAAADKYALERLKVMCEDALCSNLSVENAAEILILADLHSADQLKTQAVDFINYHASDVLETSGWKSMVVSHPHLVAEAYRSLASAQCPFLGPPRKRLKQS [Y87C] |

Variants of: B1
Conditions: with cd44_human CD44, P16070
Sequence of cd44_human CD44, P16070 (P16070 whole entry): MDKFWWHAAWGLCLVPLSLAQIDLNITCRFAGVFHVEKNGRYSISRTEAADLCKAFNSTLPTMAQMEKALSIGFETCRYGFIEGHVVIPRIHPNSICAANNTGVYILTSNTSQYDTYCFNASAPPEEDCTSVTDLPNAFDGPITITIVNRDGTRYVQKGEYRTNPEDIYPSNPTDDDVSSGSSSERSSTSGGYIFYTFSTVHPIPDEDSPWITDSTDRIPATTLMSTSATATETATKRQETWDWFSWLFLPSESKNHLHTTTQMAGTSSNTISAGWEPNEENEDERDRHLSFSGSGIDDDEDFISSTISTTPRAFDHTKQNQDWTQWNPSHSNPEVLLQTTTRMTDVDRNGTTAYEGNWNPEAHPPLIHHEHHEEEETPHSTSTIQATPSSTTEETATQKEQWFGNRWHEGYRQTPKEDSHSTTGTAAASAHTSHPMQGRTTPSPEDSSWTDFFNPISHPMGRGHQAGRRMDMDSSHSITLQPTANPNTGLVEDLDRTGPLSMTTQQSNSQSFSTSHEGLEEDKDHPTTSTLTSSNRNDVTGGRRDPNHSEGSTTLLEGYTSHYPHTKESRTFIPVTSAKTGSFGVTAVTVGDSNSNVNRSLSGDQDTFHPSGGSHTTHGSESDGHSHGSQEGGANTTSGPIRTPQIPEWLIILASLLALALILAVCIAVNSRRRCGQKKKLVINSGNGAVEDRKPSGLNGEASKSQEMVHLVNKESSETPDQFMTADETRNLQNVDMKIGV

| effect of a mutation on the interaction | Variant |
| --- | --- |
| with no effect | MSRVPSPPPPAEMSSGPVAESWCYTQIKVVKFSYMWTINNFSFCREEMGEVIKSSTFSSGANDKLKWCLRVNPKGLDEESKDYLSLCLLLVSCPKSEVRAKFKFSILNAKGEETKAMESQRAYRFVQGKDWGFKKFIRRDFLLDEANGLLPDDKLTLFCEVSVVQDSVNISGQNTMNMVKVPECRLADELGGLWENSRFTDCCLCVAGQEFQAHKAILAARSPVFSAMFEHEMEESKKNRVEINDVEPEVFKEMMCFIYTGKAPNLDKMADDLLAAADKYALERLKVMCEDALCSNLSVENAAEILILADLHSADQLKTQAVDFINYHASDVLETSGWKSMVVSHPHLVAEAYRSLASAQCPFLGPPRKRLKQS [Y87C] |

Variants of: B1
Conditions: with cd79b_human CD79B

| effect of a mutation on the interaction | Variant |
| --- | --- |
| with no effect | MSRVPSPPPPAEMSSGPVAESWCYTQIKVVKFSYMWTINNFSFCREEMGEVIKSSTFSSGANDKLKWCLRVNPKGLDEESKDYLSLCLLLVSCPKSEVRAKFKFSILNAKGEETKAMESQRAYRFVQGKDWGFKKFIRRDFLLDEANGLLPDDKLTLFCEVSVVQDSVNISGQNTMNMVKVPECRLADELGGLWENSRFTDCCLCVAGQEFQAHKAILAARSPVFSAMFEHEMEESKKNRVEINDVEPEVFKEMMCFIYTGKAPNLDKMADDLLAAADKYALERLKVMCEDALCSNLSVENAAEILILADLHSADQLKTQAVDFINYHASDVLETSGWKSMVVSHPHLVAEAYRSLASAQCPFLGPPRKRLKQS [Y87C] |
